In one experiment the target is HLA-B*51:01. Nature of the experiment: IEDB peptide-MHC binding, purified MHC/competitive/radioactivity; filed as Kd, often an IC50 or EC50 that approximates it; ≥ and ≤ were set here for values at or beyond the usual limits of such assays.
In the next experiment the target is HLA-B*08:01. The experiment is described as above. The conditions noted are these: source organism: Dengue virus 3 Martinique/1243/1999.
The next experiment concerns the target HLA-B*35:01. Described as above.
A further experiment has as its target HLA-B*44:02. Described as above.
The target in the next experiment is HLA-B*40:01. The experiment is described as above.
In experiment [1] the target is HLA-A*26:01. The experiment in a line: IEDB peptide-MHC binding, purified MHC/direct/fluorescence; filed as Kd, often an IC50 or EC50 that approximates it; ≥ and ≤ were set here for values at or beyond the usual limits of such assays.
Experiment [2] deals with HLA-A*24:02. Nature of the experiment: IEDB peptide-MHC binding, purified MHC/competitive/fluorescence; ≥ and ≤ were set here for values at or beyond the usual limits of such assays. The settings on record: source organism: Zaire ebolavirus.
The target in another experiment is HLA-A*29:02. The experiment in a line: IEDB peptide-MHC binding, purified MHC/competitive/radioactivity; filed as Kd, often an IC50 or EC50 that approximates it; ≥ and ≤ were set here for values at or beyond the usual limits of such assays.
The next experiment deals with HLA-B*44:03. The experiment is described as above.
For experiment [3], the target named is HLA-B*15:01. The description is as above.
A further experiment deals with HLA-A*32:01. The description is as above.
The next experiment deals with HLA-A*02:01. Nature of the experiment: IEDB peptide-MHC binding, purified MHC/competitive/fluorescence; ≥ and ≤ were set here for values at or beyond the usual limits of such assays. The conditions noted are these: source organism: Zaire ebolavirus.
Experiment [4] concerns the target HLA-A*24:02. Nature of the experiment: IEDB peptide-MHC binding, purified MHC/competitive/radioactivity; filed as Kd, often an IC50 or EC50 that approximates it; ≥ and ≤ were set here for values at or beyond the usual limits of such assays.
The target of another experiment is HLA-A*01:01. Described as above.
The target of experiment [5] is HLA-A*26:01. Described as above.
A further experiment deals with HLA-A*30:02. The experiment is described as above.
The target of another experiment is HLA-A*30:01. The description is as above. The conditions noted are these: source organism: Mammarenavirus brazilense.
The target of the next experiment is HLA-B*46:01. Nature of the experiment: IEDB peptide-MHC binding, purified MHC/competitive/fluorescence; filed as Kd, often an IC50 or EC50 that approximates it; ≥ and ≤ were set here for values at or beyond the usual limits of such assays. The conditions noted are these: source organism: Entamoeba histolytica HM-1:IMSS.
For the next experiment, the target named is HLA-A*68:01. The experiment in a line: IEDB peptide-MHC binding, purified MHC/competitive/radioactivity; filed as Kd, often an IC50 or EC50 that approximates it; ≥ and ≤ were set here for values at or beyond the usual limits of such assays. The settings on record: source organism: SARS coronavirus Tor2.
For the next experiment, the target named is HLA-A*11:01. Described as above. The conditions noted are these: source organism: SARS coronavirus Tor2.
The target of another experiment is HLA-A*33:01. The experiment is described as above. The settings on record: source organism: SARS coronavirus Tor2.
In the next experiment the target is HLA-A*23:01. The description is as above. The settings on record: source organism: SARS coronavirus Tor2.
In another experiment the target is HLA-A*31:01. Described as above. The settings on record: source organism: SARS coronavirus Tor2.
For another experiment, the target named is HLA-A*03:01. Described as above. The conditions noted are these: source organism: SARS coronavirus Tor2.
Experiment [6] has as its target HLA-B*15:01. The experiment in a line: IEDB peptide-MHC binding, purified MHC/competitive/fluorescence; filed as Kd, often an IC50 or EC50 that approximates it; ≥ and ≤ were set here for values at or beyond the usual limits of such assays. The conditions noted are these: source organism: Yersinia pestis Antiqua.
The mark [7] stands for this setting: source organism: Dengue virus 3 Martinique/1243/1999.
Where [8] appears, read: source organism: Dengue virus 1 Brazil/97-11/1997.
The mark [9] stands for this setting: source organism: Dengue virus 2 Jamaica/1409/1983.
Setting [10] is: source organism: Vaccinia virus Copenhagen.
The mark [11] stands for this setting: source organism: Dengue virus 4 Philippines/H241/1956.
The mark [12] stands for this setting: source organism: Mammarenavirus brazilense.
[13] abbreviates: source organism: Dengue virus 3 Sri Lanka/1266/2000.
The mark [14] stands for this setting: source organism: Vaccinia virus WR.
The mark [15] stands for this setting: source organism: SARS coronavirus Tor2.

In the case of LATLRKLCI, the Kd worked out at 2530 nM with HLA-B*51:01 (setting [7]) and 359 nM with HLA-B*08:01. LPLPWTSGA: the Kd with HLA-B*51:01 (setting [8]) amounted to 926 nM.

For GPTPELEEEM, the Kd in the experiment with HLA-B*35:01 (setting [7]) was found to be 4170 nM. As to FEKQLGQVM, the results for the Kd in the experiment with HLA-B*44:02 (setting [9]) and in the experiment with HLA-B*40:01 (setting [9]) were 319 nM and 527 nM, respectively.

On to VATTFITPM, for which the equilibrium dissociation constant (Kd) with HLA-B*35:01 (source organism: Dengue virus 2 Peru/IQT2913/1996) stood at 146 nM. For the sequence RVKLGLGIM, the dissociation constant Kd with HLA-A*26:01 [1] (source organism: Salmonella enterica subsp. enterica serovar Typhimurium) turned out to be 1300 nM. AKNISGQSP registered an IC50 with HLA-A*24:02 [2] of at least 552000 nM. On to AELLNIPFLY, for which the equilibrium dissociation constant (Kd) with HLA-A*29:02 (source organism: Homo sapiens) worked out at 108 nM; in the experiment with HLA-B*44:02 (source organism: Homo sapiens), 5 nM; with HLA-B*44:03 (source organism: Homo sapiens) it was 2.7 nM. With LILSCIFAF, the figures for the Kd with HLA-B*15:01 [3] (setting [10]) and with HLA-A*32:01 (setting [10]) were 543 nM and 427 nM, respectively. Turning to SPTVEESRTI, in the experiment with HLA-B*51:01 (setting [7]), the Kd was found to be 3780 nM. For the sequence RTSFFLWVI, the IC50 is 263 nM with HLA-A*02:01 and 16.9 nM with HLA-A*24:02 [2]. Turning to ECLPAAPDG, the IC50 with HLA-A*24:02 [2] was at least 394000 nM. For IPLQWIASAI, the Kd with HLA-B*51:01 (setting [7]) is 7.48 nM. KEISNMLSI: the Kd came out at 28.2 nM with HLA-B*44:02 (setting [7]), 6370 nM with HLA-A*32:01 (setting [7]), 6.44 nM with HLA-B*40:01 (setting [7]) and 21.8 nM with HLA-B*44:03 (setting [7]). For QMAMTDTTPF, the Kd in the experiment with HLA-B*15:01 [3] (setting [9]) was 7.23 nM; in the experiment with HLA-A*24:02 [4] (setting [9]), 3560 nM. As for IPEPDRQRTP, in the experiment with HLA-B*35:01 (setting [8]), the Kd was found to be 23.1 nM.

On to SETFSMGLL, for which, in the experiment with HLA-B*40:01 (setting [11]), the Kd stood at 3.53 nM. As to KVNACHHNY, the equilibrium dissociation constant (Kd) in the experiment with HLA-A*01:01 (setting [12]) is 3840 nM; with HLA-A*29:02 (setting [12]), 115 nM; with HLA-A*26:01 [5] (setting [12]), at least 77900 nM; with HLA-A*32:01 (setting [12]), 445 nM; in the experiment with HLA-A*30:02 (setting [12]), 11.7 nM; with HLA-A*30:01, 501 nM.

Take QLAMTDTTPF: the Kd in the experiment with HLA-B*15:01 [3] (setting [11]) was determined as 2.34 nM.

Take VEDSRFWEL: the Kd in the experiment with HLA-B*40:01 (setting [9]) turned out to be 4280 nM.

Turning to LIVMDEAHF, the Kd with HLA-B*15:01 [3] (setting [11]) was found to be 30.9 nM. Turning to LAGPISQHNY, the Kd is 187 nM with HLA-B*35:01 (setting [13]) and at least 60300 nM in the experiment with HLA-A*30:02 (setting [13]). Take IAKGIDAEF: the Kd with HLA-B*46:01 was found to be 168 nM. Consider KVKSCLCSF, for which the Kd in the experiment with HLA-B*15:01 [3] (setting [14]) was 16.6 nM. As for LAVWNRVWI, in the experiment with HLA-B*51:01 (setting [9]), the Kd turned out to be 4950 nM. CVLEAMAFL returned a Kd with HLA-A*26:01 [1] (source organism: Influenza A virus (A/chicken/Hebei/nj/2002(H9N2))) of at least 20000 nM. With SLKSLYEAF, the Kd with HLA-B*15:01 [3] (setting [14]) was found to be 20.3 nM.

HVTRGAVLTY: the Kd with HLA-B*15:01 [3] (setting [7]) worked out at 94 nM; with HLA-A*26:01 [5] (setting [7]) it was 114 nM. With SMMGFKMNY, the Kd in the experiment with HLA-A*68:01 was 10600 nM; with HLA-A*01:01 (setting [15]), 3960 nM; with HLA-A*11:01, 10.6 nM; in the experiment with HLA-A*29:02 (setting [15]) it was 13.9 nM; in the experiment with HLA-A*26:01 [5] (setting [15]), 3900 nM; in the experiment with HLA-A*33:01 it was 775 nM. In addition, the Kd in the experiment with HLA-A*23:01 is 7550 nM; in the experiment with HLA-A*31:01 it was 213 nM; with HLA-A*24:02 [4] (setting [15]), 9360 nM; with HLA-A*03:01 it was 4.89 nM; with HLA-A*30:02 (setting [15]), 10.3 nM. In the experiment with HLA-B*15:01 [6], FFQVIAKRY returned a Kd of at least 20000 nM.

Usually Kd stands for the equilibrium constant for the complex coming apart. By IC50 is commonly meant the point on the concentration scale where inhibition reaches its midpoint. A lower IC50 goes with higher potency.

For the origin of these results see the Immune Epitope Database (IEDB).
